Assays:
[1] = biological target: T1, B7-H3 endogenously expressed on human tumor cell lines (human, UniProt Q5ZPR3 29-534); test: cell-based or functional assay
T1 sequence (looked up): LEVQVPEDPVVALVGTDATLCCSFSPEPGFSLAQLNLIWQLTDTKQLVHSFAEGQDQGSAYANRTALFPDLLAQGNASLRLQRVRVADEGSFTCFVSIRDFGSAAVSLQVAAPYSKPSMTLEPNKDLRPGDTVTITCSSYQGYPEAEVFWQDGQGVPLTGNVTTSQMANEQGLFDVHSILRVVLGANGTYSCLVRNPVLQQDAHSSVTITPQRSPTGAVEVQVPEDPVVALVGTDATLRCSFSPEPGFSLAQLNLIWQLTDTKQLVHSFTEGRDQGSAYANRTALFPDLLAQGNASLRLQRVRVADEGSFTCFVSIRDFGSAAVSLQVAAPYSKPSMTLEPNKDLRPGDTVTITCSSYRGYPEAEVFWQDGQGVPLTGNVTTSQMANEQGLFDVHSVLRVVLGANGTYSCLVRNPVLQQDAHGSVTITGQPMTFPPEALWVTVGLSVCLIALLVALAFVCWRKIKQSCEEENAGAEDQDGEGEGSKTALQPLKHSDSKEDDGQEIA

[2] = biological target: T1, B7-H3 endogenously expressed on human …; test: cell-based or functional assay; remark: listed apart in the source

B1: IL-P7-C05-H4L3-MMAE (antibody, V domains shown)
VH: EVQLVESGGGLVQPGGSLRLSCAASGFTFSSYAMSWVRQAPGKGLELVAAINSNGGSTYYADSVKGRFTISRDNAKNTLYLQMSSLRAEDTAVYYCTRNEEFRRGLAYWGQGTLVTVSS
VL: DIQMTQSPSSLSASVGDRVTITCRASENIYSNLAWYQQKPGKAPKLLIYAASNLQSGVPSRFSGSGSGTDYTLTISSLQPEDFATYYCQHFWGTPPWTFGQGTKLEIK
modifications: MMAE (Monomethyl auristatin E) coupled to the antibody; linker, site and drug load not stated
Inhibitory IC50 against proliferation of BxPC-3 cells, 72 h, CellTiter-Glo [1]: 7.7 nM
Inhibitory IC50 against proliferation of NCI-H1975 cells, 72 h, CellTiter-Glo [1]: 7.4 nM
Inhibitory IC50 against proliferation of BxPC-3 cells, 5 days, CellTiter-Glo [2]: 5.5 nM
Inhibitory IC50 against proliferation of Calu-6 cells, 5 days, CellTiter-Glo [2]: 0.3 nM

Reference: patent US20230212294A1 (MINGHUI PHARMACEUTICAL SHANGHAI, published 2023)
